Substitutions are numbered along the chain they refer to. Numbers in names are those of the source.
T1: PUF4 RNA-binding domain (Saccharomyces cerevisiae, UniProt P25339 537-888)
T1 sequence: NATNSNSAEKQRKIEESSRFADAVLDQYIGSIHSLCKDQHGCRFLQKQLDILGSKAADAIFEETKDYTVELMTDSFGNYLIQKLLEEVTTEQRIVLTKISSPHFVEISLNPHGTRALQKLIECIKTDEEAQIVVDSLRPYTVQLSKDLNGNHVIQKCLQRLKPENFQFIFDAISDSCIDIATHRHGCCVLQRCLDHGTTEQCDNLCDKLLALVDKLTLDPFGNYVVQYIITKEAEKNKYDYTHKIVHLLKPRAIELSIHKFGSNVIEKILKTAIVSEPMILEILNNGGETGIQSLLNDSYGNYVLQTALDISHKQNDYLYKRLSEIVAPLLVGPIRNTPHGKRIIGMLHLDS

B1: If_S2_P4E.3_K4.2_C4.2_H4.2_A4.1_F4.1_T4.2 (ssRNA)
RNA: UUUGAUUAAUAUGAUAUCGUUCUUUCUCUUAUAUAUUAGUUUCUUUCUCGAUAUCAUAUUAAUCUUU
B2: Id_ii_S2_P4E.4_K4.3_C4.2_[C-2A]_[T-1C]_H4.3_A4.1_F4.1_T4.2_[G10T]_[T11C] (ssRNA)
RNA: B1 RNA with C28A, U29C, U30A, A31C, U32A, A33C, G39U, U40C
B3: Id_ii_S2_P4E.4_K4.3_C4.2_[C-2T]_H4.3_A4.1_F4.1_T4.2_[G10A]_[T11C] (ssRNA)
RNA: B1 RNA with C28U, U30A, A31C, U32A, A33C, G39A, U40C
B4: Id_ii_S2_P4E.4_K4.3_C4.2_[C-2A]_H4.3_A4.1_F4.1_T4.2_[G10C]_[T11A] (ssRNA)
RNA: B1 RNA with C28A, U30A, A31C, U32A, A33C, G39C, U40A
B5: Id_ii_S2_P4E.4_K4.3_C4.2_[C-2A]_H4.3_A4.1_F4.1_T4.2_[G10T]_[T11C] (ssRNA)
RNA: B1 RNA with C28A, U30A, A31C, U32A, A33C, G39U, U40C
B6: Id_ii_S2_P4E.4_K4.3_C4.2_[C-2T]_H4.3_A4.1_F4.1_T4.2 (ssRNA)
RNA: B1 RNA with C28U, U30A, A31C, U32A, A33C
B7: Id_ii_S2_P4E.4_K4.3_C4.2_[C-2A]_[T-1C]_H4.3_A4.1_F4.1_T4.2_[G10A]_[T11A] (ssRNA)
RNA: B1 RNA with C28A, U29C, U30A, A31C, U32A, A33C, G39A, U40A
B8: Id_ii_S2_P4E.4_K4.3_C4.2_[C-2G]_H4.3_A4.1_F4.1_T4.2_[G10A] (ssRNA)
RNA: B1 RNA with C28G, U30A, A31C, U32A, A33C, G39A
B9: Id_ii_S2_P4E.4_K4.3_C4.2_[C-2A]_H4.3_A4.1_F4.1_T4.2_[G10C] (ssRNA)
RNA: B1 RNA with C28A, U30A, A31C, U32A, A33C, G39C
B10: Id_ii_S2_P4E.4_K4.3_C4.2_[C-2A]_H4.3_A4.1_F4.1_T4.2_[G10A]_[T11C] (ssRNA)
RNA: B1 RNA with C28A, U30A, A31C, U32A, A33C, G39A, U40C
B11: Id_ii_S2_P4E.4_K4.3_C4.2_[C-2T]_[T-1C]_H4.3_A4.1_F4.1_T4.2_[G10C] (ssRNA)
RNA: B1 RNA with C28U, U29C, U30A, A31C, U32A, A33C, G39C
B12: Id_ii_S2_P4E.4_K4.3_C4.2_[C-2A]_[T-1A]_H4.3_A4.1_F4.1_T4.2_[G10C] (ssRNA)
RNA: B1 RNA with C28A, U29A, U30A, A31C, U32A, A33C, G39C
B13: Id_ii_S2_P4E.4_K4.3_C4.2_[C-2A]_[T-1C]_H4.3_A4.1_F4.1_T4.2_[G10C] (ssRNA)
RNA: B1 RNA with C28A, U29C, U30A, A31C, U32A, A33C, G39C
B14: Id_ii_S2_P4E.4_K4.3_C4.2_[C-2T]_H4.3_A4.1_F4.1_T4.2_[G10A] (ssRNA)
RNA: B1 RNA with C28U, U30A, A31C, U32A, A33C, G39A
B15: Id_ii_S2_P4E.4_K4.3_C4.2_[C-2T]_[T-1A]_H4.3_A4.1_F4.1_T4.2_[G10C]_[T11A] (ssRNA)
RNA: B1 RNA with C28U, U29A, U30A, A31C, U32A, A33C, G39C, U40A
B16: Id_ii_S2_P4E.4_K4.3_C4.2_[C-2A]_[T-1A]_H4.3_A4.1_F4.1_T4.2_[G10C]_[T11C] (ssRNA)
RNA: B1 RNA with C28A, U29A, U30A, A31C, U32A, A33C, G39C, U40C
B17: Id_ii_S2_P4E.4_K4.3_C4.2_[C-2G]_H4.3_A4.1_F4.1_T4.2_[G10C]_[T11C] (ssRNA)
RNA: B1 RNA with C28G, U30A, A31C, U32A, A33C, G39C, U40C
B18: Id_ii_S2_P4E.4_K4.3_C4.2_[C-2T]_H4.3_A4.1_F4.1_T4.2_[G10A]_[T11A] (ssRNA)
RNA: B1 RNA with C28U, U30A, A31C, U32A, A33C, G39A, U40A
B19: Id_ii_S2_P4E.4_K4.3_C4.2_[C-2T]_[T-1C]_H4.3_A4.1_F4.1_T4.2_[G10C]_[T11C] (ssRNA)
RNA: B1 RNA with C28U, U29C, U30A, A31C, U32A, A33C, G39C, U40C
B20: Id_ii_S2_P4E.4_K4.3_C4.2_[C-2G]_H4.3_A4.1_F4.1_T4.2_[G10A]_[T11C] (ssRNA)
RNA: B1 RNA with C28G, U30A, A31C, U32A, A33C, G39A, U40C
B21: Id_ii_S2_P4E.4_K4.3_C4.2_[C-2T]_[T-1A]_H4.3_A4.1_F4.1_T4.2_[G10T] (ssRNA)
RNA: B1 RNA with C28U, U29A, U30A, A31C, U32A, A33C, G39U
B22: Id_ii_S2_P4E.4_K4.3_C4.2_[C-2T]_[T-1A]_H4.3_A4.1_F4.1_T4.2_[G10T]_[T11A] (ssRNA)
RNA: B1 RNA with C28U, U29A, U30A, A31C, U32A, A33C, G39U, U40A
B23: Id_ii_S2_P4E.4_K4.3_C4.2_[C-2G]_H4.3_A4.1_F4.1_T4.2_[G10T]_[T11A] (ssRNA)
RNA: B1 RNA with C28G, U30A, A31C, U32A, A33C, G39U, U40A
B24: Id_ii_S2_P4E.4_K4.3_C4.2_[C-2A]_[T-1A]_H4.3_A4.1_F4.1_T4.2_[G10T]_[T11C] (ssRNA)
RNA: B1 RNA with C28A, U29A, U30A, A31C, U32A, A33C, G39U, U40C
B25: Id_ii_S2_P4E.4_K4.3_C4.2_[C-2T]_H4.3_A4.1_F4.1_T4.2_[G10C]_[T11C] (ssRNA)
RNA: B1 RNA with C28U, U30A, A31C, U32A, A33C, G39C, U40C
B26: Id_ii_S2_P4E.4_K4.3_C4.2_[C-2A]_H4.3_A4.1_F4.1_T4.2_[G10T] (ssRNA)
RNA: B1 RNA with C28A, U30A, A31C, U32A, A33C, G39U
B27: Id_ii_S2_P4E.4_K4.3_C4.2_[T-1G]_H4.3_A4.1_F4.1_T4.2_[G10C] (ssRNA)
RNA: B1 RNA with U29G, U30A, A31C, U32A, A33C, G39C
B28: Id_ii_S2_P4E.4_K4.3_C4.2_[C-2T]_[T-1A]_H4.3_A4.1_F4.1_T4.2_[G10A]_[T11A] (ssRNA)
RNA: B1 RNA with C28U, U29A, U30A, A31C, U32A, A33C, G39A, U40A
B29: Id_ii_S2_P4E.4_K4.3_C4.2_[C-2T]_[T-1C]_H4.3_A4.1_F4.1_T4.2_[G10T]_[T11A] (ssRNA)
RNA: B1 RNA with C28U, U29C, U30A, A31C, U32A, A33C, G39U, U40A
B30: Id_ii_S2_P4E.4_K4.3_C4.2_[C-2A]_[T-1A]_H4.3_A4.1_F4.1_T4.2_[G10A] (ssRNA)
RNA: B1 RNA with C28A, U29A, U30A, A31C, U32A, A33C, G39A
B31: Id_ii_S2_P4E.4_K4.3_C4.2_[C-2G]_H4.3_A4.1_F4.1_T4.2_[G10A]_[T11A] (ssRNA)
RNA: B1 RNA with C28G, U30A, A31C, U32A, A33C, G39A, U40A
B32: Id_ii_S2_P4E.4_K4.3_C4.2_[C-2A]_H4.3_A4.1_F4.1_T4.2_[G10C]_[T11G] (ssRNA)
RNA: B1 RNA with C28A, U30A, A31C, U32A, A33C, G39C, U40G
B33: Id_ii_S2_P4E.4_K4.3_C4.2_[C-2G]_[T-1C]_H4.3_A4.1_F4.1_T4.2 (ssRNA)
RNA: B1 RNA with C28G, U29C, U30A, A31C, U32A, A33C
B34: Id_ii_S2_P4E.4_K4.3_C4.2_[C-2A]_[T-1C]_H4.3_A4.1_F4.1_T4.2_[G10T]_[T11A] (ssRNA)
RNA: B1 RNA with C28A, U29C, U30A, A31C, U32A, A33C, G39U, U40A
B35: Id_ii_S2_P4E.4_K4.3_C4.2_[C-2T]_[T-1A]_H4.3_A4.1_F4.1_T4.2 (ssRNA)
RNA: B1 RNA with C28U, U29A, U30A, A31C, U32A, A33C
B36: Id_ii_S2_P4E.4_K4.3_C4.2_[C-2T]_[T-1C]_H4.3_A4.1_F4.1_T4.2_[G10A]_[T11A] (ssRNA)
RNA: B1 RNA with C28U, U29C, U30A, A31C, U32A, A33C, G39A, U40A
B37: Id_ii_S2_P4E.4_K4.3_C4.2_[C-2T]_[T-1C]_H4.3_A4.1_F4.1_T4.2_[G10T] (ssRNA)
RNA: B1 RNA with C28U, U29C, U30A, A31C, U32A, A33C, G39U
B38: Id_ii_S2_P4E.4_K4.3_C4.2_[C-2T]_H4.3_A4.1_F4.1_T4.2_[G10C]_[T11A] (ssRNA)
RNA: B1 RNA with C28U, U30A, A31C, U32A, A33C, G39C, U40A
B39: Id_ii_S2_P4E.4_K4.3_C4.2_[C-2G]_[T-1C]_H4.3_A4.1_F4.1_T4.2_[G10A]_[T11A] (ssRNA)
RNA: B1 RNA with C28G, U29C, U30A, A31C, U32A, A33C, G39A, U40A
B40: Id_ii_S2_P4E.4_K4.3_C4.2_[C-2A]_H4.3_A4.1_F4.1_T4.2_[G10C]_[T11C] (ssRNA)
RNA: B1 RNA with C28A, U30A, A31C, U32A, A33C, G39C, U40C

target: T1, PUF4 RNA-binding domain; experiment: Mg; RNA-MaP; 20 mM Na-HEPES pH 7.4, 30 mM KOAc, 0.75 mM MgCl2, 0.1% Tween-20, 5% glycerol, 0.1 mg/mL BSA, 2 mM DTT; 25 C; 0.0125-409.6 nM protein; conditions: tags: N-His6-TEV cleaved; C-SNAP kept, Cy3B-labelled; label: tethered on chip by stalled RNA polymerase

Row | Binder | Kd
1 | UCUCUUUGUAAUAGUAUCUCUU (ssRNA) [Ib_S1_P5E.1_K5.1_C5.1_H5.1_A5.1_[T5A]_F5.1_[T8G]_T5.1] | 21.4 nM
2 | B1 | 10.4 nM
3 | B2 | > 2300 nM
4 | B3 | 305 nM
5 | B4 | 11.4 nM
6 | B5 | 10.3 nM
7 | B6 | 2020 nM
8 | B7 | > 2300 nM
9 | B8 | 0.412 nM
10 | B9 | 9.11 nM
11 | B10 | 9.57 nM
12 | B11 | > 2300 nM
13 | B12 | > 2300 nM
14 | B13 | > 2300 nM
15 | B14 | 445 nM
16 | B15 | 2190 nM
17 | B16 | > 2300 nM
18 | B17 | 0.865 nM
19 | B18 | 806 nM
20 | B19 | > 2300 nM
21 | B20 | 0.5 nM
22 | B21 | 2160 nM
23 | B22 | 882 nM

Row | Binder | Kd
24 | B23 | 0.496 nM
25 | B24 | > 2300 nM
26 | B25 | 306 nM
27 | B26 | 12.3 nM
28 | B27 | > 2300 nM
29 | B28 | > 2300 nM
30 | B29 | 479 nM
31 | B30 | > 2300 nM
32 | B31 | 0.354 nM
33 | B32 | 47.6 nM
34 | B33 | 448 nM
35 | B34 | 592 nM
36 | B35 | > 2300 nM
37 | B36 | > 2300 nM
38 | B37 | 1530 nM
39 | B38 | 198 nM
40 | B39 | 23.6 nM
41 | B40 | 10.8 nM
42 | UCUCUUUGUACUAGUAUCUCUU (ssRNA) [Ib_S1_P5E.1_K5.1_C5.1_H5.1_A5.1_[T5C]_F5.1_[T8G]_T5.1] | 23.5 nM
43 | UCUCUUUGUACUACUAUCUCUU (ssRNA) [Ib_S1_P5E.1_K5.1_C5.1_H5.1_A5.1_[T5C]_F5.1_[T8C]_T5.1] | 10.9 nM
44 | UCUCUUUGCAUUAUUAUCUCUU (ssRNA) [Ia_S1_P5E.1_K5.1_C5.1_H5.1_[T3C]_A5.1_F5.1_T5.1] | 1250 nM
45 | UCUCUUUGUUUUAUUUUCUCUU (ssRNA) [Ib_S1_P5E.1_K5.1_C5.1_H5.1_[A4T]_A5.1_F5.1_[A10T]_T5.1] | 864 nM
